Measured values reported in the supplement of paper PMC9112550, “Optimization of the antimicrobial peptide Bac7 by deep mutational scanning” (BMC Biology, 2022).

System: Escherichia coli TOP10
Test: shrunken log2 fold change of peptide-encoding DNA abundance (4.5 h post-induction vs induction); higher = less antimicrobial activity (less host growth inhibition)
Conditions: time post-induction: 4.5 h; library: site-saturation at positions 5, 18, 19, 20
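Further: peptides expressed intracellularly from a pBAD plasmid library in pooled LB shake-flask culture, induced with 0.3% L-arabinose, DNA abundance read by NGS, three biological replicates, DESeq2 with apeglm shrinkage.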

Sequence	shrunken log2 fold change
RRIRSRPPRLPRPRPRPNQSPRP	-0.0432
RRIRLRPPRLPRPRPRPEIPPRP	-0.0569
RRIRIRPPRLPRPRPRPTFYPRP	-0.462
RRIRSRPPRLPRPRPRPKEFPRP	-0.216
RRIRQRPPRLPRPRPRPQDLPRP	-0.243
RRIRMRPPRLPRPRPRPQANPRP	0.271
RRIRFRPPRLPRPRPRPIDPPRP	-0.526
RRIRNRPPRLPRPRPRPRADPRP	0.327
RRIRFRPPRLPRPRPRPSNVPRP	-0.989
RRIRKRPPRLPRPRPRPQLWPRP	0.539
RRIRVRPPRLPRPRPRPQDCPRP	-0.172
RRIRSRPPRLPRPRPRPSTQPRP	2.48
RRIRSRPPRLPRPRPRPESTPRP	0.0707
RRIRKRPPRLPRPRPRPTSKPRP	0.443
RRIRRRPPRLPRPRPRPMFDPRP	0.195
RRIRERPPRLPRPRPRPMKEPRP	-0.0276
RRIRMRPPRLPRPRPRPNAFPRP	0.344
RRIRRRPPRLPRPRPRPDKKPRP	0.0135
RRIRLRPPRLPRPRPRPGCSPRP	0.0547
RRIRPRPPRLPRPRPRPIGSPRP	0.0547
RRIRQRPPRLPRPRPRPAWLPRP	-0.123
RRIRKRPPRLPRPRPRPTIAPRP	0.541
RRIRARPPRLPRPRPRPVYIPRP	-0.355
RRIRYRPPRLPRPRPRPWPTPRP	-0.426
RRIRYRPPRLPRPRPRPLPEPRP	-0.323

Sequence	shrunken log2 fold change
RRIRGRPPRLPRPRPRPHVWPRP	0.201
RRIRKRPPRLPRPRPRPHNDPRP	0.00261
RRIRKRPPRLPRPRPRPASMPRP	0.116
RRIRQRPPRLPRPRPRPMIMPRP	0.0999
RRIRDRPPRLPRPRPRPDNVPRP	-0.273
RRIRMRPPRLPRPRPRPNPQPRP	0.279
RRIRARPPRLPRPRPRPIAKPRP	0.217
RRIRYRPPRLPRPRPRPSCRPRP	-0.6
RRIRMRPPRLPRPRPRPFHMPRP	0.105
RRIRRRPPRLPRPRPRPTCIPRP	-0.123
RRIRIRPPRLPRPRPRPAKKPRP	0.0493
RRIRYRPPRLPRPRPRPDPAPRP	-0.164
RRIRDRPPRLPRPRPRPDAHPRP	-0.036
RRIRTRPPRLPRPRPRPIRMPRP	-0.441
RRIRARPPRLPRPRPRPMAFPRP	0.0104
RRIRDRPPRLPRPRPRPLGKPRP	0.188
RRIRTRPPRLPRPRPRPRMEPRP	-0.0325
RRIRARPPRLPRPRPRPGNWPRP	0.346
RRIRNRPPRLPRPRPRPPILPRP	0.144
RRIRIRPPRLPRPRPRPWMDPRP	0.0312
RRIRERPPRLPRPRPRPSARPRP	-0.192
RRIRWRPPRLPRPRPRPEVAPRP	1.25
RRIRARPPRLPRPRPRPNMCPRP	-0.339
RRIRQRPPRLPRPRPRPLLTPRP	-0.235
RRIRERPPRLPRPRPRPKPTPRP	0.148

Sequence	shrunken log2 fold change
RRIRMRPPRLPRPRPRPPVWPRP	0.825
RRIRERPPRLPRPRPRPMTQPRP	0.00826
RRIRARPPRLPRPRPRPYYGPRP	-0.363
RRIRKRPPRLPRPRPRPWHVPRP	-1.06
RRIRWRPPRLPRPRPRPNRTPRP	0.121
RRIRARPPRLPRPRPRPGEYPRP	0.0829
RRIRQRPPRLPRPRPRPLREPRP	1.44
RRIRWRPPRLPRPRPRPNHPPRP	-0.0659
RRIRCRPPRLPRPRPRPHLGPRP	-0.0785
RRIRCRPPRLPRPRPRPHTCPRP	0.0253
RRIRMRPPRLPRPRPRPIHLPRP	-0.209
RRIRSRPPRLPRPRPRPMNAPRP	0.0215
RRIRRRPPRLPRPRPRPDPYPRP	0.175
RRIRNRPPRLPRPRPRPWATPRP	-0.188
RRIRSRPPRLPRPRPRPCPRPRP	0.056
RRIRMRPPRLPRPRPRPMYVPRP	0.115
RRIRFRPPRLPRPRPRPHKKPRP	-0.369
RRIRFRPPRLPRPRPRPPLRPRP	0.373
RRIRHRPPRLPRPRPRPIETPRP	-0.00822
RRIRSRPPRLPRPRPRPHYCPRP	-0.289
RRIRHRPPRLPRPRPRPEKAPRP	-0.0238
RRIRFRPPRLPRPRPRPKWHPRP	-0.0786
RRIRQRPPRLPRPRPRPKIGPRP	-0.0543
RRIRDRPPRLPRPRPRPHGWPRP	0.861
RRIRGRPPRLPRPRPRPWPSPRP	0.258

Sequence	shrunken log2 fold change
RRIRDRPPRLPRPRPRPVEDPRP	0.429
RRIRLRPPRLPRPRPRPGWDPRP	0.507
RRIRCRPPRLPRPRPRPLPNPRP	-0.0586
RRIRARPPRLPRPRPRPHGSPRP	-0.071
RRIRFRPPRLPRPRPRPYVMPRP	-0.651
RRIRVRPPRLPRPRPRPNPCPRP	-0.461
RRIRTRPPRLPRPRPRPAELPRP	0.112
RRIRARPPRLPRPRPRPTCYPRP	0.128
RRIRMRPPRLPRPRPRPVWAPRP	0.466
RRIRLRPPRLPRPRPRPTCQPRP	0.0421
RRIRSRPPRLPRPRPRPAPLPRP	0.163
RRIRRRPPRLPRPRPRPLFQPRP	0.246
RRIRTRPPRLPRPRPRPSVWPRP	0.172
RRIRLRPPRLPRPRPRPEAMPRP	0.284
RRIRKRPPRLPRPRPRPQMAPRP	0.481
RRIRHRPPRLPRPRPRPIMVPRP	-0.000687
RRIRCRPPRLPRPRPRPIEVPRP	-0.0598
RRIRGRPPRLPRPRPRPTNGPRP	0.254
RRIRQRPPRLPRPRPRPSEQPRP	0.155
RRIRERPPRLPRPRPRPKDRPRP	-0.094
RRIRLRPPRLPRPRPRPYFHPRP	-1.08
RRIRQRPPRLPRPRPRPLCFPRP	-0.302
RRIRWRPPRLPRPRPRPNFQPRP	0.0517
RRIRFRPPRLPRPRPRPKDKPRP	-0.223
RRIRMRPPRLPRPRPRPSWKPRP	-0.181

Sequence	shrunken log2 fold change
RRIRPRPPRLPRPRPRPKTMPRP	0.0176
RRIRVRPPRLPRPRPRPLLFPRP	-0.141
RRIRFRPPRLPRPRPRPIDSPRP	-0.401
RRIRGRPPRLPRPRPRPWLGPRP	0.245
RRIRQRPPRLPRPRPRPFPWPRP	-0.0901
RRIRKRPPRLPRPRPRPFFVPRP	0.461
RRIRPRPPRLPRPRPRPTALPRP	0.0271
RRIRQRPPRLPRPRPRPRFVPRP	0.165
RRIRERPPRLPRPRPRPLHIPRP	-0.404
RRIRMRPPRLPRPRPRPLFYPRP	-0.305
RRIRSRPPRLPRPRPRPTHPPRP	0.298
RRIRIRPPRLPRPRPRPKIDPRP	-0.573
RRIRGRPPRLPRPRPRPQPWPRP	0.68
RRIRGRPPRLPRPRPRPFAIPRP	-0.0466
RRIRWRPPRLPRPRPRPQQCPRP	0.112
RRIRERPPRLPRPRPRPDDAPRP	-0.179
RRIRPRPPRLPRPRPRPRGFPRP	0.341
RRIRERPPRLPRPRPRPAESPRP	-0.049
RRIRDRPPRLPRPRPRPNSKPRP	-0.506
RRIRMRPPRLPRPRPRPMSDPRP	-0.095
RRIRTRPPRLPRPRPRPQQLPRP	1.75
RRIRARPPRLPRPRPRPKGCPRP	1.4
RRIRARPPRLPRPRPRPRSLPRP	0.0678
RRIRRRPPRLPRPRPRPHDAPRP	0.197
RRIRIRPPRLPRPRPRPSIEPRP	-0.407

Sequence	shrunken log2 fold change
RRIRLRPPRLPRPRPRPKRHPRP	0.208
RRIRWRPPRLPRPRPRPLHMPRP	-0.0711
RRIRHRPPRLPRPRPRPDKQPRP	0.0409
RRIRDRPPRLPRPRPRPNCEPRP	0.133
RRIRVRPPRLPRPRPRPKGMPRP	0.109
RRIRPRPPRLPRPRPRPVAAPRP	0.406
RRIRTRPPRLPRPRPRPGCRPRP	0.235
RRIRHRPPRLPRPRPRPIKAPRP	-0.157
RRIRPRPPRLPRPRPRPNCRPRP	-0.000174
RRIRGRPPRLPRPRPRPHYWPRP	0.12
RRIRTRPPRLPRPRPRPEWIPRP	0.0842
RRIRGRPPRLPRPRPRPYLYPRP	-0.215
RRIRVRPPRLPRPRPRPWMFPRP	-0.673
RRIRERPPRLPRPRPRPGQGPRP	-0.132
RRIRYRPPRLPRPRPRPGSDPRP	-0.898
RRIRNRPPRLPRPRPRPIPKPRP	-0.0467
RRIRSRPPRLPRPRPRPTRIPRP	-0.0163
RRIRFRPPRLPRPRPRPWYAPRP	-0.791
RRIRKRPPRLPRPRPRPVRTPRP	0.583
RRIRQRPPRLPRPRPRPLWCPRP	-0.24
RRIRERPPRLPRPRPRPPAVPRP	0.349
RRIRHRPPRLPRPRPRPICMPRP	-0.00804
RRIRTRPPRLPRPRPRPYRPPRP	-0.2
RRIRLRPPRLPRPRPRPIETPRP	-0.0258
RRIRNRPPRLPRPRPRPFLSPRP	-0.246
